The chains are these.
B1: Adenosine receptor A2a, P29274 (parent)
chain: MPIMGSSVYITVELAIAVLAILGNVLVCWAVWLNSNLQNVTNYFVVSLAAADIAVGVLAIPFAITISTGFCAACHGCLFIACFVLVLTQSSIFSLLAIAIDRYIAIRIPLRYNGLVTGTRAKGIIAICWVLSFAIGLTPMLGWNNCGQPKEGKNHSQGCGEGQVACLFEDVVPMNYMVYFNFFACVLVPLLLMLGVYLRIFLAARRQLKQMESQPLPGERARSTLQKEVHAAKSLAIIVGLFALCWLPLHIINCFTFFCPDCSHAPLWLMYLAIVLSHTNSVVNPFIYAYRIREFRQTFRKIIRSHVLRQQEPFKAAGTSARVLAAHGSDGEQVSLRLNGHPPGVWANGSAPHPERRPNGYALGLVSGGSAQESQGNTGLPDVELLSHELKGVCPEPPGLDDPLAQDGAGVS

“And” between values parts separate entries of the source, which are not always exact repeats. Identical values can stand only once.

Variants of B1 are the subject of this data set. The following applies: Homo sapiens; pH 7.4; Thermal; Activity; Tris 50 mM; NaCl 0.4 M; structure 4UHR; whole UniProt chain shown.

For orientation: Tm means the temperature at the midpoint of the melting transition. Turning to G114A G118A, the Tm came to 31 °C and the “change of melting temperature, mutant - wild type (higher = more stable)” value (“change of melting temperature, mutant” for short) was found to be 11 °C.

A203L A204L: the Tm was 40 °C and 42 °C; the “change of melting temperature, mutant” value is 9 °C and 10 °C.

As for L167A A184L R199A L241A L272A, the Tm turned out to be 29 °C and the “change of melting temperature, mutant” value is 9 °C.

As to A54L K122A L235A, the Tm is 47 °C and 48 °C; the “change of melting temperature, mutant” value amounted to 16 °C.

As to L167A A184L L272A, the Tm was 27 °C and the “change of melting temperature, mutant” value is 7 °C.

With A54L T88A V239A, the Tm came out at 46 °C and the “change of melting temperature, mutant” value was 14 °C.

With A54L T88A, the Tm was 39 °C and the “change of melting temperature, mutant” value was 8 °C.

For the variant A54L T88A A204L V239A, the “change of melting temperature, mutant” value was 10 °C and 15 °C.

(Values after FireProtDB (doi:10.1073/pnas.0804396105).)
